Reference: doi:10.1101/2025.03.04.641353
Like-named read-outs stand apart in the source and are kept apart here.

Assays:
[1] = molecular target: T1, Bovine serum albumin (BSA) (Bos taurus, UniProt P02769 25-607); assay: SYBR Green I fluorescence titration
[2] = molecular target: T1, Bovine serum albumin (BSA); assay: SYBR Green I fluorescence titration; remark: listed apart in the source

T1 sequence (P02769 25-607): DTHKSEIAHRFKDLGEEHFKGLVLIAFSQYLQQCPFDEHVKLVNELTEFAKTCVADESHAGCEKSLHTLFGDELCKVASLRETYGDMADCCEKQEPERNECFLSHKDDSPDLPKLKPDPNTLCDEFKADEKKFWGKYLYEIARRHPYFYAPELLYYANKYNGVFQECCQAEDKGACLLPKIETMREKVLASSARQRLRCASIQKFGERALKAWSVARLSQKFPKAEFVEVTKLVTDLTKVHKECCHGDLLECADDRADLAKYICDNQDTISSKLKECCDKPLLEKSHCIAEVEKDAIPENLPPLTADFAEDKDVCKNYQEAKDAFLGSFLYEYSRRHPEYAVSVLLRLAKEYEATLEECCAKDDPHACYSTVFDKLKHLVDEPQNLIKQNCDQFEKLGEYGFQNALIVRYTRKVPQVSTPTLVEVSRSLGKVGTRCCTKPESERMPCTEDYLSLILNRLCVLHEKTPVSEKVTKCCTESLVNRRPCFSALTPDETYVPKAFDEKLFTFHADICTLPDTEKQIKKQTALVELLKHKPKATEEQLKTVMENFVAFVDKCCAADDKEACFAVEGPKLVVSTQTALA

Binder | Kd [1] | Kd [2]
AGCAGCACAGAGGTCAGATGGTATCGAGCGCAGGGCCGCCTTTGTT (ssDNA) [R_apt] | 20 nM | –
Ni_apt (ssDNA) DNA: AAAAAAAAAAGCAGCACAGAGGTCAGATGGTATCGAGCGCAGGGCCGCCTTTGTT | – | 120 nM
